For one substance, percent positive cells results are on record in US6376459.

The target in the test is CD40CR (CD40 counter-receptor), 39 kD membrane protein of activated murine helper T cells (murine) (UniProt P27548). Briefly: flow cytometry on activated Th, FITC-RG7 detection.
UniProt P27548, sequence (P27548 whole entry): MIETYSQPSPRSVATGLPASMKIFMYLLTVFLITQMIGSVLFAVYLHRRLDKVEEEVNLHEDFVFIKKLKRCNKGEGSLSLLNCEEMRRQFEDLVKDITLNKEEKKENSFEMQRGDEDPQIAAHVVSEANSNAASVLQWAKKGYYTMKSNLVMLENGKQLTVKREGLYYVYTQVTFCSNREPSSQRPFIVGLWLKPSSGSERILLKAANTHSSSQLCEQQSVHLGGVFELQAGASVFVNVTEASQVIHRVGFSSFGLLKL

Regarding “MR1, hamster anti-murine gp39 monoclonal antibody”, the percent positive cells was found to be 61%.
